From patent US20230365714A1 (published 2023)

T1: cynomolgus monkey (Macaca fascicularis) ROR2, full length, on CHO cells (cynomolgus monkey (Macaca fascicularis), UniProt Q01974 34-943 (human entry))
T1 construct: also called ROR2mf; CHO-mfROR2
T1 chain: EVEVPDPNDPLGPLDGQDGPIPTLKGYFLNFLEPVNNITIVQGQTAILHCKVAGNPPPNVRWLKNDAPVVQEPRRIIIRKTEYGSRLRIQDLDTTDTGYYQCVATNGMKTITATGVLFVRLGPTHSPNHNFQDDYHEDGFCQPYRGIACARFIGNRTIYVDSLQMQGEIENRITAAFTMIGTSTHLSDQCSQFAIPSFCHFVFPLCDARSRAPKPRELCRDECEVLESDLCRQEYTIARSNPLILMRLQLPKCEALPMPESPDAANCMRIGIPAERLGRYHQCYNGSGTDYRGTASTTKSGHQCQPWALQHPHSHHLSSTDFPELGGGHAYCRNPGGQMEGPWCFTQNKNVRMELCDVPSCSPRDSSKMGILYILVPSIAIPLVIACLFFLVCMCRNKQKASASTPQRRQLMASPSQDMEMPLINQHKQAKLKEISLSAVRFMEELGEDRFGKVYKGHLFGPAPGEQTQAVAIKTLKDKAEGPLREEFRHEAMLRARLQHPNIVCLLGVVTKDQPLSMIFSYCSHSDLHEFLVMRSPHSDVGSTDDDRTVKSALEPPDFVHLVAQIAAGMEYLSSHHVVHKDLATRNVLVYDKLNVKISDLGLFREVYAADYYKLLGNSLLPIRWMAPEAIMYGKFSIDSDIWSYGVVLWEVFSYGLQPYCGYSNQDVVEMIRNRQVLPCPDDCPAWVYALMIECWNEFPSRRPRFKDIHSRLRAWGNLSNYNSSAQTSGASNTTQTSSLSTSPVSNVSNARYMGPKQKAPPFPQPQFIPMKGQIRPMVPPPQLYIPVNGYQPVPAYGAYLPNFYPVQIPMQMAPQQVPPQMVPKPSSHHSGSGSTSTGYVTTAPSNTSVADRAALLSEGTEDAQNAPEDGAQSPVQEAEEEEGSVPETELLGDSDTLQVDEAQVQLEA


Legend:
[1] = biological target: T1, cynomolgus monkey (Macaca fascicularis) …; experiment: flow cytometry on CHO cells expressing cynomolgus monkey ROR2
Method: Next, binding of bispecific CD3×ROR2 antibodies and monospecific ROR2 antibodies to CHO cells expressing human or cynomolgus monkey ROR2 was determined, using 5×10⁴ transfected cells/well and an antibody concentration range from 0.01-10 μg/mL.

[2] = biological target: T2, his-tagged ROR2 extracellular domain (ROR2-ECD, G&P Biosciences, cat. no. FCL0192) (human, UniProt Q01974 34-403); experiment: BLI (Octet), antibody on anti-human IgG Fc sensor, ROR2-ECD 1.56-100 nM as analyte
T2 construct: Bought protein; also called human ROR2-ECD; recombinant human ROR2-ECD; not shown: his tag

[3] = biological target: human (Homo sapiens) ROR2, full length, on cells (human, UniProt Q01974 34-943); experiment: cell-based or functional assay
[4] = biological target: T3, cynomolgus monkey ROR2 in which threonine at position 322 is replaced by methionine (ROR2mf-T322M) (cynomolgus monkey (Macaca fascicularis), UniProt Q01974 34-943 (human entry)); experiment: flow cytometry on CHO cells expressing ROR2mf-T322M
T3 construct: also called RORmf-T322M

Sequence of human (Homo sapiens) ROR2, full length, on cells (Q01974 34-943 limits assumed): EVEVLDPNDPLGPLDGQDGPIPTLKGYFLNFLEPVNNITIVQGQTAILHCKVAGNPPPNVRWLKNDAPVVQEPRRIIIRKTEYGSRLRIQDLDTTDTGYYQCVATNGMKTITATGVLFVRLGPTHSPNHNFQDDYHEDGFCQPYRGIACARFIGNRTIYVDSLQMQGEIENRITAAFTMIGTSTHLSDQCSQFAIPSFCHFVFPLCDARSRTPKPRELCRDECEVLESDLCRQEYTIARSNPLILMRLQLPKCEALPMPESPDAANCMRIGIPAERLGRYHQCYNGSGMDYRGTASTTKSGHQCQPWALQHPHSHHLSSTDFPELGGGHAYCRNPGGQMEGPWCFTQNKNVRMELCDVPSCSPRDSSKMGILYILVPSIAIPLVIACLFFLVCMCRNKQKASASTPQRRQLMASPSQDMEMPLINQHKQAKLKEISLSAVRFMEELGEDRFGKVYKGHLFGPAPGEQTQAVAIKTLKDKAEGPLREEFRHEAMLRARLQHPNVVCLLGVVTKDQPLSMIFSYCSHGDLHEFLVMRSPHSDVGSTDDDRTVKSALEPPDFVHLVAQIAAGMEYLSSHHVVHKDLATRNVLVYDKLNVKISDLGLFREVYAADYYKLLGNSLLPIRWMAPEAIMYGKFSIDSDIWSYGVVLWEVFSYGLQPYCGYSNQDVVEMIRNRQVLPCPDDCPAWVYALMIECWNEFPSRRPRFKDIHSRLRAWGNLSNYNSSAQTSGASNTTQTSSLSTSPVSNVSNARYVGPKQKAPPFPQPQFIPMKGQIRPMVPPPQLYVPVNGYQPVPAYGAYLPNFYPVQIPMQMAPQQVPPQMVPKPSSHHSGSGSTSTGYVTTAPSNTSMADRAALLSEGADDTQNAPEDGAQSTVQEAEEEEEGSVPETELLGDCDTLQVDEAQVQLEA
T2 sequence (Q01974 34-403): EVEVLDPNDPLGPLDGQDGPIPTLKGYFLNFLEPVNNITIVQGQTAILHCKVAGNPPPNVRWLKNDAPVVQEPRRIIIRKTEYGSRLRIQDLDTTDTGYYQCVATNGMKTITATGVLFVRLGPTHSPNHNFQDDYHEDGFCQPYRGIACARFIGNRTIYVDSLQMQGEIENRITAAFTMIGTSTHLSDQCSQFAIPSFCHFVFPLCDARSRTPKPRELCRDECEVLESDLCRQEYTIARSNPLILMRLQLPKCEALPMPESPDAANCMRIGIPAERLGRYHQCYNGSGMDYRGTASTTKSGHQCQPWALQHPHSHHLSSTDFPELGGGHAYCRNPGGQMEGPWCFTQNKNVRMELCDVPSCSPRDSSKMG

Binder	binding result [1]	Kd [2] [nM]	koff [2] [s⁻¹]	kon [2] [M⁻¹ s⁻¹]	binding result [4]	IC50 of T cell mediated cytotoxicity, 786-O cells, human T cells, E:T 8:1 [3] [µg/mL]	IC50 of T cell mediated cytotoxicity, Hela cells, human T cells, E:T 8:1 [3] [µg/mL]	IC50 of T cell mediated cytotoxicity, LCLC-103H cells, human T cells, E:T 8:1 [3] [µg/mL]	IC50 of T cell mediated cytotoxicity, NCI-H23 cells, human T cells, E:T 8:1 [3] [µg/mL]	IC50 of T cell mediated cytotoxicity, NCI-H1650 cells, human T cells, E:T 8:1 [3] [µg/mL]	IC50 of T cell mediated cytotoxicity, ZR-75-1 cells, human T cells, E:T 8:1 [3] [µg/mL]
bsIgG1-huCD3-H101G-FEAL×chROR2-A-FEAR (bispecific antibody) heavy 1: not shown light 1: not shown heavy 2: QSVEESGGRLVTPGTPLTLTCTVSGFSLSSYSMSWVRQAPGKGLEWIGVIYVNSKTWYANWAKGRFTISKTSTTVDLKITSPTTEDTATYFCARGDAGYTTNSWLWGPGTLVTVSSASTKGPSVFPLAPSSKSTSGGTAALGCLVKDYFPEPVTVSWNSGALTSGVHTFPAVLQSSGLYSLSSVVTVPSSSLGTQTYICNVNHKPSNTKVDKRVEPKSCDKTHTCPPCPAPEFEGGPSVFLFPPKPKDTLMISRTPEVTCVVVAVSHEDPEVKFNWYVDGVEVHNAKTKPREEQYNSTYRVVSVLTVLHQDWLNGKEYKCKVSNKALPAPIEKTISKAKGQPREPQVYTLPPSREEMTKNQVSLTCLVKGFYPSDIAVEWESNGQPENNYKTTPPVLDSDGSFFLYSRLTVDKSRWQQGNVFSCSVMHEALHNHYTQKSLSLSPGK light 2: AFELTQTPASVSEPVGGTVTIKCQASESIDNYCSWYQQKPGQPPKLLIYQAFKLASGVPSRFRGSGSGTQFTLTISDLESDDAATYYCQSYSGISTTAFGGGTEVVVKRTVAAPSVFIFPPSDEQLKSGTASVVCLLNNFYPREAKVQWKVDNALQSGNSQESVTEQDSKDSTYSLSSTLTLSKADYEKHKVYACEVTHQGLSSPVTKSFNRGEC					binds	0.088	0.424	0.511	0.58	0.693	0.424
IgG1-ROR2-A-HC1LC4-FEAR (antibody, Humanized variant) heavy: QSVLESGGGLVQPGGSLRLSCTVSGFSLSSYSMSWVRQAPGKGLEWIGVIYVNSKTWYANWAKGRFTISKTSTTVDLKITSPTAEDTATYFCARGDAGYTTNSWLWGQGTLVTVSSASTKGPSVFPLAPSSKSTSGGTAALGCLVKDYFPEPVTVSWNSGALTSGVHTFPAVLQSSGLYSLSSVVTVPSSSLGTQTYICNVNHKPSNTKVDKRVEPKSCDKTHTCPPCPAPEFEGGPSVFLFPPKPKDTLMISRTPEVTCVVVAVSHEDPEVKFNWYVDGVEVHNAKTKPREEQYNSTYRVVSVLTVLHQDWLNGKEYKCKVSNKALPAPIEKTISKAKGQPREPQVYTLPPSREEMTKNQVSLTCLVKGFYPSDIAVEWESNGQPENNYKTTPPVLDSDGSFFLYSRLTVDKSRWQQGNVFSCSVMHEALHNHYTQKSLSLSPGK VL: DIQLTQSPSSLSASVGDRVTITCQASESIDNYLSWYQQKPGKAPKLLIYQAFKLASGVPSRFRGSGSGTDFTLTISSLQPEDFATYYCQSYSGISTTAFGGGTKVEIK		2	0.0012	560000							
IgG1-ROR2-A-HC2LC2-FEAR (antibody, V domains shown, Humanized variant) VH: QSVLESGGGLVQPGGSLRLSCTVSGFSLSSYSMSWVRQAPGKGLEWIGVIYVNSKTWYANWAKGRFTISKTSTTVYLQMNSLRAEDTATYFCARGDAGYTTNSWLWGQGTLVTVSS VL: AFELTQSPSSLSASVGDRVTITCQASESIDNYLSWYQQKPGKAPKLLIYQAFKLASGVPSRFRGSGSGTDFTLTISSLQSEDFATYYCQSYSGISTTAFGGGTEVVIK		1.8	0.00089	510000							
IgG1-ROR2-A-HC2LC4-FEAR (antibody, Humanized variant) heavy: QSVLESGGGLVQPGGSLRLSCTVSGFSLSSYSMSWVRQAPGKGLEWIGVIYVNSKTWYANWAKGRFTISKTSTTVYLQMNSLRAEDTATYFCARGDAGYTTNSWLWGQGTLVTVSSASTKGPSVFPLAPSSKSTSGGTAALGCLVKDYFPEPVTVSWNSGALTSGVHTFPAVLQSSGLYSLSSVVTVPSSSLGTQTYICNVNHKPSNTKVDKRVEPKSCDKTHTCPPCPAPEFEGGPSVFLFPPKPKDTLMISRTPEVTCVVVAVSHEDPEVKFNWYVDGVEVHNAKTKPREEQYNSTYRVVSVLTVLHQDWLNGKEYKCKVSNKALPAPIEKTISKAKGQPREPQVYTLPPSREEMTKNQVSLTCLVKGFYPSDIAVEWESNGQPENNYKTTPPVLDSDGSFFLYSRLTVDKSRWQQGNVFSCSVMHEALHNHYTQKSLSLSPGK VL: DIQLTQSPSSLSASVGDRVTITCQASESIDNYLSWYQQKPGKAPKLLIYQAFKLASGVPSRFRGSGSGTDFTLTISSLQPEDFATYYCQSYSGISTTAFGGGTKVEIK		2.2	0.0011	510000							
IgG1-ROR2-A-HC2LC3-FEAR (antibody, Humanized variant) heavy: QSVLESGGGLVQPGGSLRLSCTVSGFSLSSYSMSWVRQAPGKGLEWIGVIYVNSKTWYANWAKGRFTISKTSTTVYLQMNSLRAEDTATYFCARGDAGYTTNSWLWGQGTLVTVSSASTKGPSVFPLAPSSKSTSGGTAALGCLVKDYFPEPVTVSWNSGALTSGVHTFPAVLQSSGLYSLSSVVTVPSSSLGTQTYICNVNHKPSNTKVDKRVEPKSCDKTHTCPPCPAPEFEGGPSVFLFPPKPKDTLMISRTPEVTCVVVAVSHEDPEVKFNWYVDGVEVHNAKTKPREEQYNSTYRVVSVLTVLHQDWLNGKEYKCKVSNKALPAPIEKTISKAKGQPREPQVYTLPPSREEMTKNQVSLTCLVKGFYPSDIAVEWESNGQPENNYKTTPPVLDSDGSFFLYSRLTVDKSRWQQGNVFSCSVMHEALHNHYTQKSLSLSPGK VL: AFELTQSPSSLSASVGDRVTITCQASESIDNYLSWYQQKPGKAPKLLIYQAFKLASGVPSRFRGSGSGTDFTLTISSLQPEDFATYYCQSYSGISTTAFGGGTKVEIK		2	0.001	490000							

Continued, in another order:

binding result [1]	Kd [2] [nM]	koff [2] [s⁻¹]	kon [2] [M⁻¹ s⁻¹]	binding result [4]	Binder	IC50 of T cell mediated cytotoxicity, 786-O cells, human T cells, E:T 8:1 [3] [µg/mL]	IC50 of T cell mediated cytotoxicity, Hela cells, human T cells, E:T 8:1 [3] [µg/mL]	IC50 of T cell mediated cytotoxicity, LCLC-103H cells, human T cells, E:T 8:1 [3] [µg/mL]	IC50 of T cell mediated cytotoxicity, NCI-H23 cells, human T cells, E:T 8:1 [3] [µg/mL]	IC50 of T cell mediated cytotoxicity, NCI-H1650 cells, human T cells, E:T 8:1 [3] [µg/mL]	IC50 of T cell mediated cytotoxicity, ZR-75-1 cells, human T cells, E:T 8:1 [3] [µg/mL]
binds	1.1	0.00068	600000		IgG1-ROR2-A-HC4LC3-FEAR (antibody, Humanized variant, full-length IgG1 with L234F, L235E, D265A, K409R; also called IgG1-ROR2-HC4LC3) heavy: EVQLLESGGGLVQPGGSLRLSCTVSGFSLSSYSMSWVRQAPGKGLEWIGVIYVNSKTWYANWAKGRFTISKDNSKNTVYLQMNSLRAEDTATYYCARGDAGYTTNSWLWGQGTLVTVSSASTKGPSVFPLAPSSKSTSGGTAALGCLVKDYFPEPVTVSWNSGALTSGVHTFPAVLQSSGLYSLSSVVTVPSSSLGTQTYICNVNHKPSNTKVDKRVEPKSCDKTHTCPPCPAPEFEGGPSVFLFPPKPKDTLMISRTPEVTCVVVAVSHEDPEVKFNWYVDGVEVHNAKTKPREEQYNSTYRVVSVLTVLHQDWLNGKEYKCKVSNKALPAPIEKTISKAKGQPREPQVYTLPPSREEMTKNQVSLTCLVKGFYPSDIAVEWESNGQPENNYKTTPPVLDSDGSFFLYSRLTVDKSRWQQGNVFSCSVMHEALHNHYTQKSLSLSPGK light: AFELTQSPSSLSASVGDRVTITCQASESIDNYLSWYQQKPGKAPKLLIYQAFKLASGVPSRFRGSGSGTDFTLTISSLQPEDFATYYCQSYSGISTTAFGGGTKVEIKRTVAAPSVFIFPPSDEQLKSGTASVVCLLNNFYPREAKVQWKVDNALQSGNSQESVTEQDSKDSTYSLSSTLTLSKADYEKHKVYACEVTHQGLSSPVTKSFNRGEC						
	1.7	0.00085	510000		IgG1-ROR2-A-HC2LC1-FEAR (antibody, V domains shown, Humanized variant) VH: QSVLESGGGLVQPGGSLRLSCTVSGFSLSSYSMSWVRQAPGKGLEWIGVIYVNSKTWYANWAKGRFTISKTSTTVYLQMNSLRAEDTATYFCARGDAGYTTNSWLWGQGTLVTVSS VL: AFELTQSPSSLSASVGDRVTITCQASESIDNYCSWYQQKPGKAPKLLIYQAFKLASGVPSRFRGSGSGTDFTLTISSLQSEDFATYYCQSYSGISTTAFGGGTEVVIK						
binds	1.1	0.00079	720000	binds	chIgG1-ROR2-A-FEAR (antibody, V domains shown, Full-length IgG1 with L234F, L235E, D265A, K409R; also called chIgG1-ROR2-A (with the Fc mutations FEAR)) VH: QSVEESGGRLVTPGTPLTLTCTVSGFSLSSYSMSWVRQAPGKGLEWIGVIYVNSKTWYANWAKGRFTISKTSTTVDLKITSPTTEDTATYFCARGDAGYTTNSWLWGPGTLVTVSS VL: AFELTQTPASVSEPVGGTVTIKCQASESIDNYCSWYQQKPGQPPKLLIYQAFKLASGVPSRFRGSGSGTQFTLTISDLESDDAATYYCQSYSGISTTAFGGGTEVVVKR						
